B1: F1*; the commonest letter at each place (parent)
chain: GAGACCGCAACTGAAAAGTTGTTATCACTTGTCGTAAGACACTTTGGATGGGTTGAAGTTCTGCACGTAGAAGCAAAAGGC

In this data set the parent is B1. In words: fraction ligated after 30 min (ligated reads / total reads); higher = more ligase activity. Particulars: with F1*sub RNA substrate (template-directed ligation), 42 °C. The method, then:
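Chip-synthesised pool of F1* ligase ribozyme variants (all single and double substitutions, single, double and triple deletions in the catalytic core and GAA bulge, plus designed variants) was transcribed with T7 and reacted as a pool with excess substrate F1*sub for 30 min at 42 C in 50 mM EPPS pH 8.5, 25 mM MgCl2. Ligated and unligated bands were separated by PAGE, barcoded by RT and deep sequenced; fraction ligated = ligated reads / total reads per variant, relative activity = FL / FL of wild type (0.826). Sequences are the DNA template of the ribozyme.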
For GAGACCGCAACTGAAAAGTTGTCATCACTTGTGGTAAGACACTTTGGATGGGTTGAAGTTCTGCACGTAGAAGCAAAAGGC, the fraction ligated came to 0.819. With GAGACCGCAACTGAAAAGTTGTCATCACTTGTCGTAAGACAGTTTGGATGGGTTGAAGTTCTGCACGTAGAAGCAAAAGGC the figure was 0.761. Take GAGACCGCAACTGAAAAGTTGTCATCACTTGTCGTAAGACAATTTGGATGGGTTGAAGTTCTGCACGTAGAAGCAAAAGGC: the fraction ligated amounted to 0.762.

With GAGACCGCAACTGAAAAGTTGTCATCACTTGTCGTAAGACATTTTGGATGGGTTGAAGTTCTGCACGTAGAAGCAAAAGGC, the fraction ligated turned out to be 0.804. Regarding GAGACCGCAACTGAAAAGTTGTCATCACTTGTCGTAAGACACTTTGGATGGGTTTAAGTTCTGCACGTAGAAGCAAAAGGC, the fraction ligated turned out to be 0.786.

Turning to GAGACCGCAACTGAAAAGTTGTCATCACTTGTCGTAAGACACTTTGGATGGGTTAAAGTTCTGCACGTAGAAGCAAAAGGC, the fraction ligated was determined as 0.783. For the variant GAGACCGCAACTGAAAAGTTGTCATCACTTGTCGTAAGACACTTTGGATGGGTTCAAGTTCTGCACGTAGAAGCAAAAGGC, the fraction ligated worked out at 0.469. With GAGACCGCAACTGAAAAGTTGTCATCACTTGTCCTAAGACACTTTGGATGGGTTGAAGTTCTGCACGTAGAAGCAAAAGGC the figure was 0.774; with GAGACCGCAACTGAAAAGTTGTCATCACTTGTCTTAAGACACTTTGGATGGGTTGAAGTTCTGCACGTAGAAGCAAAAGGC, 0.804; with GAGACCGCAACTGAAAAGTTGTCATCACTTGTCATAAGACACTTTGGATGGGTTGAAGTTCTGCACGTAGAAGCAAAAGGC, 0.819. Regarding GAGACCGCAACTGAAAAGTTGTCATCACTTGTCGTAAGACTCTTTGGATGGGTTGAAGTTCTGCACGTAGAAGCAAAAGGC, the fraction ligated was 0.808.

Regarding GAGACCGCAACTGAAAAGTTGTCATCACTTGTCGTAAGACGCTTTGGATGGGTTGAAGTTCTGCACGTAGAAGCAAAAGGC, the fraction ligated was 0.784.

In the case of GAGACCGCAACTGAAAAGTTGTCATCACTTGTCGTAAGACCCTTTGGATGGGTTGAAGTTCTGCACGTAGAAGCAAAAGGC, the fraction ligated turned out to be 0.783.

Turning to GAGACCGCAACTGAAAAGTTGTCATCACTTGTCGTAAGACACTTTGGTTGGGTTGAAGTTCTGCACGTAGAAGCAAAAGGC, the fraction ligated is 0.0663. GAGACCGCAACTGAAAAGTTGTCATCACTTGTCGTAAGACACTTTGGGTGGGTTGAAGTTCTGCACGTAGAAGCAAAAGGC: the fraction ligated came to 0.696.

For GAGACCGCAACTGAAAAGTTGTCATCACTTGTCGTAAGACACTTTGGCTGGGTTGAAGTTCTGCACGTAGAAGCAAAAGGC, the fraction ligated came to 0.697. For the variant GAGACCGCAACTGAAAAGTTGTCATCACTTGTCGTAAGACACTTTGGATGGGTTGAGGTTCTGCACGTAGAAGCAAAAGGC, the fraction ligated is 0.851. For the variant GAGACCGCAACTGAAAAGTTGTCATCACTTGTCGTAAGACACTTTGGATGGGTTGATGTTCTGCACGTAGAAGCAAAAGGC, the fraction ligated worked out at 0.794. Consider GAGACCGCAACTGAAAAGTTGTCATCACTTGTCGTAAGACACTTTGGATGGGTTGACGTTCTGCACGTAGAAGCAAAAGGC, for which the fraction ligated is 0.81.

On to GAGACCGCAACTGAAAAGTTGTCATCACTTGTCGGAAGACACTTTGGATGGGTTGAAGTTCTGCACGTAGAAGCAAAAGGC, for which the fraction ligated stood at 0.83.

For the variant GAGACCGCAACTGAAAAGTTGTCATCACTTGTCGAAAGACACTTTGGATGGGTTGAAGTTCTGCACGTAGAAGCAAAAGGC, the fraction ligated was found to be 0.845. Take GAGACCGCAACTGAAAAGTTGTCATCACTTGTCGCAAGACACTTTGGATGGGTTGAAGTTCTGCACGTAGAAGCAAAAGGC: the fraction ligated was determined as 0.818.

As for GAGACCGCAACTGAAAAGTTGTCATCACTTGTCGTAACACACTTTGGATGGGTTGAAGTTCTGCACGTAGAAGCAAAAGGC, the fraction ligated was determined as 0.802. With GAGACCGCAACTGAAAAGTTGTCATCACTTGTCGTAAAACACTTTGGATGGGTTGAAGTTCTGCACGTAGAAGCAAAAGGC the figure was 0.815.

Turning to GAGACCGCAACTGAAAAGTTGTCATCACTTGTCGTAATACACTTTGGATGGGTTGAAGTTCTGCACGTAGAAGCAAAAGGC, the fraction ligated worked out at 0.803.

As for GAGACCGCAACTGAAAAGTTGTCATCACTTGTCGTAAGATACTTTGGATGGGTTGAAGTTCTGCACGTAGAAGCAAAAGGC, the fraction ligated was 0.811. As to GAGACCGCAACTGAAAAGTTGTCATCACTTGTCGTAAGAAACTTTGGATGGGTTGAAGTTCTGCACGTAGAAGCAAAAGGC, the fraction ligated amounted to 0.792. On to GAGACCGCAACTGAAAAGTTGTCATCACTTGTCGTAAGAGACTTTGGATGGGTTGAAGTTCTGCACGTAGAAGCAAAAGGC, for which the fraction ligated is 0.766.

Turning to GAGACCGCAACTGAAAAGTTGTCATCACTTGTCGTAAGACACTTTGGATAGGTTGAAGTTCTGCACGTAGAAGCAAAAGGC, the fraction ligated came to 0.632. For GAGACCGCAACTGAAAAGTTGTCATCACTTGTCGTAAGACACTTTGGATCGGTTGAAGTTCTGCACGTAGAAGCAAAAGGC, the fraction ligated is 0.258.

With GAGACCGCAACTGAAAAGTTGTCATCACTTGTCGTAAGACACTTTGGATTGGTTGAAGTTCTGCACGTAGAAGCAAAAGGC, the fraction ligated amounted to 0.782.

Regarding GAGACCGCAACTGAAAAGTTGTCACCACTTGTCGTAAGACACTTTGGATGGGTTGAAGTTCTGCACGTAGAAGCAAAAGGC, the fraction ligated came out at 0.782.

Turning to GAGACCGCAACTGAAAAGTTGTCAGCACTTGTCGTAAGACACTTTGGATGGGTTGAAGTTCTGCACGTAGAAGCAAAAGGC, the fraction ligated came out at 0.672. Consider GAGACCGCAACTGAAAAGTTGTCAACACTTGTCGTAAGACACTTTGGATGGGTTGAAGTTCTGCACGTAGAAGCAAAAGGC, for which the fraction ligated is 0.582.
